Measured values from US20030159166A1 (ORTHO MCNEIL PHARMACEUTICAL, published 2003).

Molecular target: T1, recombinant soluble HLA-DM (human, UniProt P28067 27-233; P28068 19-218)
T1 construct: extracellular domain; Expressed in Drosophila Schneider-2 cells, purified on Ni-NTA agarose and by gel filtration
Assay: in vitro complex formation, isolation on Ni-NTA agarose by the His tag of DM

B1: DO-Fc fusion protein (extracellular domains of DOA and DOB fused to the Fc domain of human IgG1) (Fc fusion)
MHC II alpha: TKADHMGSYGPAFYQSYGASGQFTHEFDEEQLFSVDLKKSEAVWRLPEFGDFARFDPQGGLAGIAAIKAHLDILVERSNRSRAINVPPRVTVLPKSRVELGQPNILICIVDNIFPPVINITWLRNGQTVTEGVAQTSFYSQPDHLFRKFHYLPFVPSAEDVYDCQVEHWGLDAPLLRHWELQVPIPPPDAME
MHC II beta: TDSPEDFVIQAKADCYFTNGTEKVQFVVRFIFNLEEYVRFDSDVGMFVALTKLGQPDAEQWNSRLDLLERSRQAVDGVCRHNYRLGAPFTVGRKVQPEVTVYPERTPLLHQHNLLHCSVTGFYPGDIKIKWFLNGQEERAGVMSTGPIRNGDWTFQTVVMLEMTPELGHVYTCLVDHSSLLSPVSVEWRAQSEYSWRK
notes: extracellular domain; Expressed in Drosophila Schneider-2 cells, purified on protein A sepharose; also called HLA-DO; not shown: human IgG1 Fc domain
Q: Does B1 bind?
A: Result: binds
